This passage reports Kd results from PMC8670446 (2021).

The target of the assay is Ssa1 (S. cerevisiae, UniProt P10591 1-642). Put plainly: BLI; apparent KD from equilibrium levels; His6-SUMO-Ssa1 immobilized. For orientation: BLI is a label-free optical method that tracks binding on a fibre tip over time.
Chain of Ssa1 (P10591 whole entry): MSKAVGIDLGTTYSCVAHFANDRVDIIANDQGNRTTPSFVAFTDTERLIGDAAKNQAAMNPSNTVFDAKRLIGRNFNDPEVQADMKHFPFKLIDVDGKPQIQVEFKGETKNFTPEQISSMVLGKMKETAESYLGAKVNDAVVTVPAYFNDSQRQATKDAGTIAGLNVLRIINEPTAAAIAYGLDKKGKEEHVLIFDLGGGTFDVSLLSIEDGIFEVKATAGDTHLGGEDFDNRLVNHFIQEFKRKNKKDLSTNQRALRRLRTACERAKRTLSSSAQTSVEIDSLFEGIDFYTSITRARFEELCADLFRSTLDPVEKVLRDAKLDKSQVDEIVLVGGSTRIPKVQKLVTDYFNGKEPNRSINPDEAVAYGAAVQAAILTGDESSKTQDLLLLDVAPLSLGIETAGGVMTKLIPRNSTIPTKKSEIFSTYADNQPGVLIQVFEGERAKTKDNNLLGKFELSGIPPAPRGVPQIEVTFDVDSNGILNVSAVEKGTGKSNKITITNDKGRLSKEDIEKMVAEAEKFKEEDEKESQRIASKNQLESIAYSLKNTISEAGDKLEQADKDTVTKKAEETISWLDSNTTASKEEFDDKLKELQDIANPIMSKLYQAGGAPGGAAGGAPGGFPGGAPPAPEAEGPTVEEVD

B1: Sis1 (natural protein)
chain: MVKETKLYDLLGVSPSANEQELKKGYRKAALKYHPDKPTGDTEKFKEISEAFEILNDPQKREIYDQYGLEAARSGGPSFGPGGPGGAGGAGGFPGGAGGFSGGHAFSNEDAFNIFSQFFGGSSPFGGADDSGFSFSSYPSGGGAGMGGMPGGMGGMHGGMGGMPGGFRSASSSPTYPEEETVQVNLPVSLEDLFVGKKKSFKIGRKGPHGASEKTQIDIQLKPGWKAGTKITYKNQGDYNPQTGRRKTLQFVIQEKSHPNFKRDGDDLIYTLPLSFKESLLGFSKTIQTIDGRTLPLSRVQPVQPSQTSTYPGQGMPTPKNPSQRGNLIVKYKVDYPISLNDAQKRAIDENF
In the case of B1, the Kd was found to be 210 nM.
